We go through one molecule from PMC4319926, “Deciphering the Stepwise Binding Mode of HRG1β to HER3 by Surface Plasmon Resonance and Interaction Map” (PLoS ONE, 2015).

Common to all, as to details: both partners purified
The target of one test is T1, HER3-Avi-biotin (human, UniProt P21860 20-643, single biotin on the C-terminal Avi-Tag).
T1 construct: HER3 (ErbB3) extracellular domain with C-terminal Avi-Tag, singly biotinylated, MW 70 kDa; Printed MW 70 kDa; It was captured through streptavidin on a Biotin CAPture chip; also called bi-ECD3; biotinylated HER3-Avi; source: gift of pRED, Roche Diagnostics GmbH (Dr. Jürgen Schanzer); not shown: Avi-Tag, C-terminal, kept
T1 sequence (P21860 20-643): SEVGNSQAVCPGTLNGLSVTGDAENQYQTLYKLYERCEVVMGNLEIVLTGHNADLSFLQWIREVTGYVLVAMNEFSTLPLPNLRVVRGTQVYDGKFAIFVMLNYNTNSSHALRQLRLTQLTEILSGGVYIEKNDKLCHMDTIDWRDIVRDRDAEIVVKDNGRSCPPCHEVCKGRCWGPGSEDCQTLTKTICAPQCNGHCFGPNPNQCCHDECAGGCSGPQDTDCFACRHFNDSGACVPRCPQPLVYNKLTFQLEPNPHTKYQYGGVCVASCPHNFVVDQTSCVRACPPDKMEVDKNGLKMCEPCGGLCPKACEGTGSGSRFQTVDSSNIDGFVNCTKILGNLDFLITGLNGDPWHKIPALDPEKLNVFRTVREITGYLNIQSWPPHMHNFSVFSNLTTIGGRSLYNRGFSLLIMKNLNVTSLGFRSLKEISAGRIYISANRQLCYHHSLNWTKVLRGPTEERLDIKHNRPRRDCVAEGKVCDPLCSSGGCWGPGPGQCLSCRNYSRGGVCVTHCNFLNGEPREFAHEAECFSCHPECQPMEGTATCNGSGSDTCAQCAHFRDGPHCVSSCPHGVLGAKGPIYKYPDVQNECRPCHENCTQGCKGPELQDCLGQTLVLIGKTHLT
As to the kind of experiment: SPR; assay D: Biacore T200, 25°C; HER3-Avi-biotin captured via streptavidin on CAP chip, no mAb208; HRG1β injected at 105-1.3 nM, 60 µl/min, 5 min association, 10 min dissociation; same sample buffer; evaluated by 1:1 Langmuir fit, two-state reaction model and Interaction Map. In general terms: In SPR one partner is held on a chip, and binding of the other changes the refractive index at the surface.

Test [1] addresses T2, human HER3 extracellular domain (human, UniProt P21860 20-643).
T2 construct: HER3 (ErbB3) receptor extracellular domain, human, MW 68 kDa; Printed MW 68 kDa; also called ECD3; HER3-ECD; source: from Dr. Birgit Bossenmaier, Roche Diagnostics GmbH, Penzberg
As to the kind of experiment: SPR; assay C: Biacore T200, 25°C; HER3 bound to mAb208 captured by immobilised rabbit anti-mouse antibody on CM5; HRG1β injected at 105-1.3 nM, 60 µl/min, 5 min association, 10 min dissociation; 10 mM HEPES pH 7.4, 150 mM NaCl, 1 mM EDTA, Tween 20, 1 mg/ml carboxymethyldextran; evaluated by 1:1 Langmuir fit (apparent), two-state reaction model and Interaction Map.

Test [2] deals with T2, human HER3 extracellular domain. Described as above. The source holds these as a separate data set.

Usually koff stands for a measure of how fast the partners let go of each other. In general, kon refers to the rate constant with which the complex forms. The term stoichiometry N denotes the number of molecules, sites or subunits per partner or assembly.

T2 sequence (P21860 20-643): as above

B1: human heregulin β1 (ligand, UniProt Q02297-6 20-246, looked up)
chain: SGKKPESAAGSQSPALPPRLKEMKSQESAAGSKLVLRCETSSEYSSLRFKWFKNGNELNRKNKPQNIKIQKKPGKSELRINKASLADSGEYMCKVISKLGNDSASANITIVESNEIITGMPASTEGAYVSSESPIRISVSTEGANTSSSTSTSTTGTSHLVKCAEKEKTFCVNGGECFMVKDLSNPSRYLCKCPNEFTGDRCQNYVMASFYKHLGIEFMEAEELYQK
notes: heregulin β1 (neuregulin-1, beta 1 isoform), human, MW 25 kDa; The printed MW of 25 kDa is larger than an EGF-like domain alone; also called HRG1β; Heregulin 1 beta; source: from Dr. Birgit Bossenmaier, Roche Diagnostics GmbH, Penzberg
Regarding B1, in the test with HER3-Avi-biotin, the Kd was 0.38 nM, the koff came to 0.0046 s⁻¹, the kon came to 1.2e+07 M⁻¹ s⁻¹ and the “stoichiometry N” value was 0.84. Besides, the “stoichiometry N” value in test [1] came to 0.5. In test [2], the Kd was determined as 0.33 nM, the koff was found to be 0.04 s⁻¹, the on-rate (kon) is 1.2e+08 M⁻¹ s⁻¹ and the “stoichiometry N” value came to 0.56.
